Assay results: patent publication US20260265386A1 (Chugai, published 2026)

B1: PDA0129 (antibody, human IgG1, kappa, V domains shown)
VH: QSVEESGGRLVTPGTPLTLTCTVSGFSLSSYDMSWVRQAPGKGLEYIGIISSSGSTYYASWAKGRFTISKTSTTVDLKITSPTTEDTATYFCARLGYVGYGYADIWGPGTLVTVSS
VL: IEMTQTPFSVSAAVGGTVTIKCQASEDIYSLLAWYQQKPGQPPKLLIYSASTLASGVPSRFKGSGYGTEFTLTISGVQAADAATYYCQGGYYSSSADNTFGGGTEVVVKR
B2: PDE0171 (antibody, human IgG1, kappa, V domains shown)
VH: QSLEESGGGLVKPGASLTLTCTASGFSFSGSYYMCWVRQAPGKGLECIACIYAGSSGATYYASWAKGRFTVSKTSSTTVTLQMTSLTAADTATYFCARHTNGIGLGLWGPGTLVTVSS
VL: DIVMTQTPASVSAAVGGTVSINCQASEDIENFLAWYQQKPGQPPSLLIYETSKLASGVPSRFSGSGSGTEFTLTISDLEAADAATYYCQSYDWSDSSTYDNTFGGGTEVVVKR
B3: GY14 (antibody, human IgG1, kappa, V domains shown)
VH: QVQLQQSGAELVRPGASVKLSCKALGDTFTDYEIHWVKQTPVHGLEWIGVIHPGSGGTVYNQKFKGKATLTADKYSSTAYMELSSLTSEDSAVYYCTREGMNTDWYFDVWGAGTTVTVSS
VL: DILMTQDELSLPVSLGDQASISCRSSQTIVHTNGNTYLEWYLQKPGQSPKLLIYKVSNRFSGVPDRFSGSGSGTYFTLKISRLEAEDLGVYYCFQGSHVPYTFGGGTKLEMKR
B4: PDC0053 (antibody, human IgG1, kappa, V domains shown)
VH: QQHLVESGGGLVKPGASLTLTCKASGFYFSGYYYMSWVRQAPGKGLEWIASIYSGGSGNTYYASWAKGRFTISKTSSTTVTLQMTSLTAADTATYFCARGADYTHDYPADAAAWSFDPWGPGTLVTVSS
VL: DIVMTQTPASVEAAVGGIVTIKCQASQSISSYLAWYQQKPGQPPNLLIYRASTLASGVPSRFKGSGSGTQFTLTISDLEAADAATYYCQGYHFSSTSSNYGNAFGGGTEVVVKR
B5: PDC0037 (antibody, human IgG1, kappa, V domains shown)
VH: QSVEESGGRLVTPGTPLTLTCTVSGFSLSYYAMIWVRQAPGKGLEWIGFINSYGKTYYANWAKGRFTISKTSTTVDLKMTSLTSEDTATYFCARERDNYHFNLWGQGTLVTVSS
VL: AQVLTQTPSPVSAAVGGTVTISCQSSESVYNNNWLAWYQQKPGQPPKFLIYDASTLASGVPSRFSGSGSGTQFTLTISGVQADDAATYYCQGTYYSSDWYFVFGGGTEVVVKR
B6: PDA0107 (antibody, human IgG1, kappa, V domains shown)
VH: QSVEESGGRLVTPGTPLTLTCTVSGFSLSRYYMSWVRQAPGKGLEWIGYIYADSGSTWYASWAKGRFTISKTSTTVDLKMTSLTTEDTATYFCARRADHDGAFDLWGPGTLVTVSS
VL: AAVLTQTPSPVSAAVGGTVSISCQSSQSVYGKNELSWYQQKPGQPPKLLIYYASTLASGVPSRFSGSGSGTQFALTISGVQADDAATYYCAGGYSSSVDTTFGGGTEVVVKR
B7: PDA0044 (antibody, human IgG1, kappa, V domains shown)
VH: QSVEESGGRLVTPGTPLTLTCTASGFSLSGYYMSWVRQAPGKGLEWIGSISYGGSTYYASWAKGRFTISKTSTTVDLKITSPTTEDTATYFCAAGYTTNTAFDPWGPGTLVTVSS
VL: AFELTQTPSSVEAAVGGTVTIKCQASQSISSYLAWYQQKPGQPPKLLIYGASNLKSGVPSRFKGSGSGTQFTLTISDLEAADAATYYCQSYYYSSSSSYSFGGGTEVVVKR
B8: GY5 (antibody, human IgG1, kappa, V domains shown)
VH: QVQLQQSGPELVRPGVSVKISCKGSGHTFTDYALHWVRQSHVKSLEWIGVISSYNGITNYNQRFKGKATMTVDKSSSTAYLELARLTSEDSAIYYCSREEWDVFYYFDYWGQGTTLTVSS
VL: DIMLTQSPLSLPVSLGDQASISCRSSQGIVHSDGNTYLEWYLQKPGQSPKLLIYKVSNRFSGVPDRFSGSGSGTDFILKISRVEAEDLGVYYCFQGSHVPYTFGGGTKLEIKR
B9: PDA0138 (antibody, human IgG1, kappa, V domains shown)
VH: QSVEESGGRLVTPGTPLTLTCTVSGFSLSSYHMCWVRQPPGKGLEYIGIISGGAITYYATWAKGRFTISITSSTTVDLKITSPTTEDTATYFCARGGGYGGGDYNFDLWGQGTLVTVSS
VL: AAVLTQTPSPVSAAVGATVSISCQSSQSVYGNSELAWYQQKPGQRPKLLIFEASKLASGVPSRFSGSGSGTQFSLAISDVQADDAATYYCAGGYSSTSDTTFGGGTEVVVKR

target: T1, human PD1 on NFAT-luc2/PD1 Jurkat Cell line (Promega, #CS187102) (human, UniProt Q15116 25-288); assay: flow cytometry on NFAT-luc2/PD1 Jurkat cells, Ab 10 micro g/mL, detected with Goat F(ab')2 anti-Human IgG-PE
T1 construct: whole, on cells; also called PD1+Jurkat cells; human PD1-expressing cell line
T1 sequence (Q15116 25-288): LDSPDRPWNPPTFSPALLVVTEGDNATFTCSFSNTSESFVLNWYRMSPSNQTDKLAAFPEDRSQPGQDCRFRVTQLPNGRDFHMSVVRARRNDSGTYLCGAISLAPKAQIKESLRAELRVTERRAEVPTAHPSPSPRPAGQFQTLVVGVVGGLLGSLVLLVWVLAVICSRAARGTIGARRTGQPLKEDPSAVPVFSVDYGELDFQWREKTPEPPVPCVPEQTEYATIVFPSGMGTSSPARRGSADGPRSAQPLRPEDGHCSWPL
Source text: Unbound Abs were removed by washing twice with staining buffer.

Q: Does B1 bind?
A: binds

Q: Does B2 bind?
A: binds

Q: Does B3 bind?
A: binds

Q: Does B4 bind?
A: binds

Q: Does B5 bind?
A: binds

Q: Does B6 bind?
A: binds

Q: Does B7 bind?
A: binds

Q: Does B8 bind?
A: binds

Q: Does B9 bind?
A: binds
